According to patent publication US20040152869A1 (SCHERING, published 2004):
Ends that are not written are not given here.

T1: 10-mer truncated form of APP28, YEVHH-QKLVF (SEQ ID NO: 8)
T1 chain: YEVHHQKLVF

T2: Ac-Tyr-Glu-Val-Ala-His-Gln-Lys-Leu-Val-Phe-NH2 (SEQ ID NO: 13)
T2 chain: YEVAHQKLVF

T3: proteolytic ADAM33 polypeptide (wild-type ADAM33 catalytic domain with Ser-Gly-His6 Tag, expressed in … (Homo sapiens (Human), UniProt Q9BZ11 204-409))
T3 sequence: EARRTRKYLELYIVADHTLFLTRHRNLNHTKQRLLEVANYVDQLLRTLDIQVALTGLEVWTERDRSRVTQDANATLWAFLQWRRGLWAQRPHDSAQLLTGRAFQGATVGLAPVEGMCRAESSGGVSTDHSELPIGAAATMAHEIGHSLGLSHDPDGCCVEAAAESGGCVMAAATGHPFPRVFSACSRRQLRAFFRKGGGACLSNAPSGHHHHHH

B1: proteolytic ADAM33 polypeptide (wild-type ADAM33 catalytic domain with Ser-Gly-His6 Tag, expressed in Drosophila S2 cells) (protein)
chain: EARRTRKYLELYIVADHTLFLTRHRNLNHTKQRLLEVANYVDQLLRTLDIQVALTGLEVWTERDRSRVTQDANATLWAFLQWRRGLWAQRPHDSAQLLTGRAFQGATVGLAPVEGMCRAESSGGVSTDHSELPIGAAATMAHEIGHSLGLSHDPDGCCVEAAAESGGCVMAAATGHPFPRVFSACSRRQLRAFFRKGGGACLSNAPSGHHHHHH

Legend:
[1] = molecular target: T1, 10-mer truncated form of APP28, …
[2] = molecular target: T2, Ac-Tyr-Glu-Val-Ala-His-Gln-Lys-Leu-Val-P …
[3] = molecular target: T3, proteolytic ADAM33 polypeptide …; assay: cell-based or functional assay

Binder	Relative Activity [3]	also measured
B1		cleavage [1]: identification of a 10-mer peptide substrate of a proteolytic ADAM33 polypeptide; kcat/Km [2]: kcat/Km=10,000 M-1s-1; rate of cleavage relative to the 10-mer truncated form of APP28 (SEQ ID NO: 8) [2]: at a rate seventeen times greater than the 10-mer truncated form of APP28 (SEQ ID NO: 8)
EVAHQKLA-OH [EVAH*QKLA-OH (SEQ ID NO: 37)]	0.1	
YEVAHQKLAF-OH [YEVAH*QKLAF-OH (SEQ ID NO: 7)]	1.1	
SGYEVAHQKLAFFA-OH [SGYEVAH*QKLAFFA-OH (SEQ ID NO: 11)]	1.2	
Ac-YEVAHQKLVF-NH2 [Ac-Tyr-Glu-Val-Ala-His-Gln-Lys-Leu-Val-Phe-NH2 (SEQ ID NO: 13)]	1	
Ac-VAHQKL-NH2 [Ac-VAH*QKL-NH2 (SEQ ID NO: 38)]	0	
SGYEVAHQKLA-OH [SGYEVAH*QKLA-OH (SEQ ID NO: 9)]	0.5	
YEVAHQKLA-OH [YEVAH*QKLA-OH (SEQ ID NO: 12)]	0.9	
